Experiments:
c-Src SH2 = assay: SH2 binding enrichment of the phosphorylated peptide, bacterial display (enrichment ratio); higher = better substrate or ligand; peptides without Tyr show the background
Grb2 SH2 = Grb2 SH2 (UniProt P62993); assay: as above
SHP2-C SH2 = assay: as above
c-Abl (mouse) = assay: phosphorylation enrichment, bacterial display (enrichment ratio); higher = better substrate or ligand; peptides without Tyr show the background
FGFR3 = FGFR3 (UniProt P22607); assay: as above
EPHB1 = EPHB1 (UniProt P54762); assay: as above
c-Src = assay: as above
EPHB2 = EPHB2 (UniProt P29323); assay: as above
Hck = Hck (UniProt P08631); assay: as above
AncSZ = assay: as above
FGFR1 = FGFR1 (UniProt P11362); assay: as above
MERTK = MERTK (UniProt Q12866); assay: as above
Jak2 = Jak2 (UniProt O60674); assay: as above
Fes = Fes (UniProt P07332); assay: as above
Fer (mouse) = assay: as above
Fyn = Fyn (UniProt P06241); assay: as above
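Throughout, for SH2 binding enrichment of the phosphorylated peptide, bacterial display: peptide library displayed on the E. coli surface as eCPX fusions, selected cells deep-sequenced, score is each peptide's frequency after selection divided by its frequency in the input.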
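Throughout, for phosphorylation enrichment, bacterial display: 11-residue human phosphosite peptides and single-mutation variants displayed on the E. coli surface, counted by deep sequencing, each peptide's frequency after selection divided by its frequency in the unselected input library; frequency after pTyr selection over input frequency; kinase dosed for 20-30% of maximal phosphorylation in three min.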

Fyn, sequence (P06241 whole entry, looked up, the tested form may be a part): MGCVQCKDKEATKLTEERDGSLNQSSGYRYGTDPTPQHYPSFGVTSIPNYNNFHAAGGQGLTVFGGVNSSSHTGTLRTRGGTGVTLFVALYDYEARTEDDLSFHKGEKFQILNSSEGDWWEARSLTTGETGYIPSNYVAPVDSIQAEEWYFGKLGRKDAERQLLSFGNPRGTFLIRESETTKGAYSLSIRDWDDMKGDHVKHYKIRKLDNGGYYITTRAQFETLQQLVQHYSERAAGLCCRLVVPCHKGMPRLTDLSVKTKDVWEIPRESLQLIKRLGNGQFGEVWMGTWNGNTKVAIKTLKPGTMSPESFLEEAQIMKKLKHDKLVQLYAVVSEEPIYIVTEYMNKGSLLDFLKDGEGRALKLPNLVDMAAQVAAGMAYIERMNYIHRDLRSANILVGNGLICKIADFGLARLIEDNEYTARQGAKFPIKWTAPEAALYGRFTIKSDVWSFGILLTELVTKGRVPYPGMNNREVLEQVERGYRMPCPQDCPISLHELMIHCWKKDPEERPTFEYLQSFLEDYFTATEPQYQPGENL
EPHB2, sequence (P29323 whole entry, looked up): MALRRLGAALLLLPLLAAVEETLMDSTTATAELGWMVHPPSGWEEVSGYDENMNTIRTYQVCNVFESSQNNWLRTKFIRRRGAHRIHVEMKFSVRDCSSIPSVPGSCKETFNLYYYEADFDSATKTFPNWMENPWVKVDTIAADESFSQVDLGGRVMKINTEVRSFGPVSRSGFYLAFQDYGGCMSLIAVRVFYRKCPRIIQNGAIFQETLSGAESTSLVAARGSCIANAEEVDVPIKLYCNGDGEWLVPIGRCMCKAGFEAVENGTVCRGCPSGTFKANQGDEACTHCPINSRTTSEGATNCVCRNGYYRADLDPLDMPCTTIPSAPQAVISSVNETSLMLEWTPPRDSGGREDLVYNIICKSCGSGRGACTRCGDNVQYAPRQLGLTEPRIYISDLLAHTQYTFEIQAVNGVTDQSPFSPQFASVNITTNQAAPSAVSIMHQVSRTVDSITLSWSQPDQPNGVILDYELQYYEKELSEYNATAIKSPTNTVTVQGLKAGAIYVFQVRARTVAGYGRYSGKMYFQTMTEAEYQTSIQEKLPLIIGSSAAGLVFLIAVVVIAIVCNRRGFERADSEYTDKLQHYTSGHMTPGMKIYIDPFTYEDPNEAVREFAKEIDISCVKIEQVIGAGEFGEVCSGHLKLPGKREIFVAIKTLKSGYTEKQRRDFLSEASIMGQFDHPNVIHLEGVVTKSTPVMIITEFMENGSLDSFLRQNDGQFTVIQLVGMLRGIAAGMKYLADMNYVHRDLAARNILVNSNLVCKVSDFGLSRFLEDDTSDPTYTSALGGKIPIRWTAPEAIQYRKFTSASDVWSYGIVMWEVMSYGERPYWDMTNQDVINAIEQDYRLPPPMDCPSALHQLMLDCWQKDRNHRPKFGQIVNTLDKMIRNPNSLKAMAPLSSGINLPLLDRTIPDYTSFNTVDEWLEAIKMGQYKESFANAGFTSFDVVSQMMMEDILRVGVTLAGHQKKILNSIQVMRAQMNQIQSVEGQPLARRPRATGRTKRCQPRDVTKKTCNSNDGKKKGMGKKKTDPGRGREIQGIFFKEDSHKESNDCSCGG
Hck, sequence (P08631 whole entry, looked up): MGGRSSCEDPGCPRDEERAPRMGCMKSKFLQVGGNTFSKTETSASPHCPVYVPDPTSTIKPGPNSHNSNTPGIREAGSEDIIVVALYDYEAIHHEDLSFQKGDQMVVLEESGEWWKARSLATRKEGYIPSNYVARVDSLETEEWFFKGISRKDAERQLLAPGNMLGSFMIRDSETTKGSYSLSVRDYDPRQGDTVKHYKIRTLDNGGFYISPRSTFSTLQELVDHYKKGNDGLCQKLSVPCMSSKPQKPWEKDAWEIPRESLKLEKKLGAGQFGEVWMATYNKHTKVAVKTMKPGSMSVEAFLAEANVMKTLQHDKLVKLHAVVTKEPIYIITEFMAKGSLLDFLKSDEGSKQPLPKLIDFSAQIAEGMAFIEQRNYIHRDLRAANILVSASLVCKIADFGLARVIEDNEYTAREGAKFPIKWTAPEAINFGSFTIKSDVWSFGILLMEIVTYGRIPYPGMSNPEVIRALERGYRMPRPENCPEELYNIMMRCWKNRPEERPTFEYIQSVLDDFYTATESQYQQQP
FGFR1, sequence (P11362 whole entry, looked up): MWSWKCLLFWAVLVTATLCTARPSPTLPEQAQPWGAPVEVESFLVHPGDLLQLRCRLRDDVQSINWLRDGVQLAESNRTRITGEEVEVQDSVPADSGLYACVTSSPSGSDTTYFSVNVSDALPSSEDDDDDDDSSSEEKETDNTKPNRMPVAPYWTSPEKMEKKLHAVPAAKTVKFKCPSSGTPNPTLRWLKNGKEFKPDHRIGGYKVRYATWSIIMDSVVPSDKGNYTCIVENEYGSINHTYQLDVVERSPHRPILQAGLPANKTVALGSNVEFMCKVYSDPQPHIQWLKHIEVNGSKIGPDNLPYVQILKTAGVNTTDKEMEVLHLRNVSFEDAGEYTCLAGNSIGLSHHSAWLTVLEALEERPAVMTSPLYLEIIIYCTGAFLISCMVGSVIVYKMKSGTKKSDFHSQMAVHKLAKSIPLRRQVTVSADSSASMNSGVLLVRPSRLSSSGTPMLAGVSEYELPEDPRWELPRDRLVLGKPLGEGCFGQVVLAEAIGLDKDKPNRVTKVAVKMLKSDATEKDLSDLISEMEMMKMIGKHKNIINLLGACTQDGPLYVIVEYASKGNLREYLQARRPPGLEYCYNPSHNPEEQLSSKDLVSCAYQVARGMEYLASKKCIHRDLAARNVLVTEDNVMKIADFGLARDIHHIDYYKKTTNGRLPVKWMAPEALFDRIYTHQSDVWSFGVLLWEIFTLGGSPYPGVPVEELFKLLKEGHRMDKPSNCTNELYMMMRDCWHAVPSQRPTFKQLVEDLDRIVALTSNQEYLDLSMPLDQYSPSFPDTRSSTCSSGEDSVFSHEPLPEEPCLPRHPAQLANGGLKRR
MERTK, sequence (Q12866 whole entry, looked up): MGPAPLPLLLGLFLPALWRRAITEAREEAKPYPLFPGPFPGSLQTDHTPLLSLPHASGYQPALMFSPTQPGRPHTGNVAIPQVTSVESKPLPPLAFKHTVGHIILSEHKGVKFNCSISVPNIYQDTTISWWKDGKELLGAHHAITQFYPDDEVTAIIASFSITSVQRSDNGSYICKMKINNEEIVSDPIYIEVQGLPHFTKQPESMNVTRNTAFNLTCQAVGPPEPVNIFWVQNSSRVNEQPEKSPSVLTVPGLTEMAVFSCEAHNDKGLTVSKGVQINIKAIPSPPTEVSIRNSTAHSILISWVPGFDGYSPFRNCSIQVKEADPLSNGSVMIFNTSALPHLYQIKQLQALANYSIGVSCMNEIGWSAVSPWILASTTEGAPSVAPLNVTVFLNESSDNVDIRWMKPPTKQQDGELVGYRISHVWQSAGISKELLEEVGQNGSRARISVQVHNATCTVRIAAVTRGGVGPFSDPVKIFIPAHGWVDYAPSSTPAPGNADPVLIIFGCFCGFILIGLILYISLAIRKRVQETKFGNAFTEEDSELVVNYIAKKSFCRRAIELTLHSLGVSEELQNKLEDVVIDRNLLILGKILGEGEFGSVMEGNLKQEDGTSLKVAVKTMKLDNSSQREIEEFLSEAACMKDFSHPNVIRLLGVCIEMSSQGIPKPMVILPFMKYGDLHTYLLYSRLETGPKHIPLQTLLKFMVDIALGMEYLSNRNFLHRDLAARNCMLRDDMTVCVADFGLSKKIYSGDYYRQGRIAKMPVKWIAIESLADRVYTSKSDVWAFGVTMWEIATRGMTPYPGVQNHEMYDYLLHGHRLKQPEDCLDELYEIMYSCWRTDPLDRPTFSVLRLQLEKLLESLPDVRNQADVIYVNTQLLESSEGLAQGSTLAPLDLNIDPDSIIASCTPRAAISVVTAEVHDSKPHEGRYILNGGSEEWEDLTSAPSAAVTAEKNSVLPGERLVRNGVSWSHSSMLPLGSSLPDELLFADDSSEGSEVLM
FGFR3, sequence (P22607 whole entry, looked up): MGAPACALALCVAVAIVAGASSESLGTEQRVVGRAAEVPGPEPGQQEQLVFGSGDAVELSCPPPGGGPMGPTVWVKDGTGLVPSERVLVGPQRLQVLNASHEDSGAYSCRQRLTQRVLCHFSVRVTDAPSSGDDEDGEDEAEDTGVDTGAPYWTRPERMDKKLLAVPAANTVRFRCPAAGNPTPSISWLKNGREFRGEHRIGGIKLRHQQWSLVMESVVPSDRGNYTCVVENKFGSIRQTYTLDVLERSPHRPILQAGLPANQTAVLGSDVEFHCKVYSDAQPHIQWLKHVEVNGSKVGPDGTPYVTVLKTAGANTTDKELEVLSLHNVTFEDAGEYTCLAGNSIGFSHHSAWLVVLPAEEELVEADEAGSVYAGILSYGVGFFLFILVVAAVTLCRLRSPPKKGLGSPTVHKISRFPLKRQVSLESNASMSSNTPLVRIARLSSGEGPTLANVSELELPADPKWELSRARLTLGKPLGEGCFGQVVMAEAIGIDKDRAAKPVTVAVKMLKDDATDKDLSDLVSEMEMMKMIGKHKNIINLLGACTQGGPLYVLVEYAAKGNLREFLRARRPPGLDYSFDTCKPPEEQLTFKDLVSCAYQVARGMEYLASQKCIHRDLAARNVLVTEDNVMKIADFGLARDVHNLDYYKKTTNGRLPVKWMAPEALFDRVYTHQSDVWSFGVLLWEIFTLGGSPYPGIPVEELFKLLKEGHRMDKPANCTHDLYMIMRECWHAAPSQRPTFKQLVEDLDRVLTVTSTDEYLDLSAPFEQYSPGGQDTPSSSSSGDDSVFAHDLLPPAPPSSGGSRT
Grb2 SH2, sequence (P62993 whole entry, looked up): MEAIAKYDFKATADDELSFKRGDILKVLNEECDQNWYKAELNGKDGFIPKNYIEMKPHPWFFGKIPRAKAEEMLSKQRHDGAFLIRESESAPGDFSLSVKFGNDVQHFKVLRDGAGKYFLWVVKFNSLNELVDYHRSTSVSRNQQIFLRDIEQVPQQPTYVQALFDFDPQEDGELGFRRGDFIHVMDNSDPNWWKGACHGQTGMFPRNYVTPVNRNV

Sequence | SH2 binding enrichment (c-Src SH2) | SH2 binding enrichment (Grb2 SH2) | SH2 binding enrichment (SHP2-C SH2) | phosphorylation enrichment (c-Abl (mouse)) | phosphorylation enrichment (FGFR3) | phosphorylation enrichment (EPHB1) | phosphorylation enrichment (c-Src) | phosphorylation enrichment (EPHB2) | phosphorylation enrichment (Hck) | phosphorylation enrichment (AncSZ) | phosphorylation enrichment (FGFR1) | phosphorylation enrichment (MERTK) | phosphorylation enrichment (Jak2) | phosphorylation enrichment (Fes) | phosphorylation enrichment (Fer (mouse)) | phosphorylation enrichment (Fyn)
RHIEKYVDQGK [IRAK3_Y61] | 0.605 | 0.993 | 0.834 | 0.783 | 0.633 | 0.577 | 0.687 | 0.318 | 0.74 | 0.771 | 0.512 | 0.59 | 0.857 | 0.833 | 0.593 | 0.533
RIAFQYGDTDL [MYBPC3_Y340_V342D] | 0.577 | 0.954 | 0.742 | 0.735 | 0.737 | 0.743 | 0.381 | 0.825 | 0.432 | 1.1 | 0.703 | 0.544 | 0.784 | 1.24 | 0.689 | 0.81
RIVTTYIRERE [DNM2_Y463] | 0.518 | 0.71 | 0.655 | 0.741 | 0.682 | 0.477 | 0.499 | 0.75 | 0.874 | 1.12 | 0.616 | 0.758 | 0.795 | 1.06 | 0.649 | 0.811
RLLRGYRQDAF [HLA-A_Y137_F133L_YF] | 0.465 | 0.762 | 0.965 | 0.807 | 0.676 | 0.809 | 0.819 | 0.334 | 0.604 | 1.22 | 0.547 | 0.647 | 0.854 | 0.981 | 0.659 | 0.678
RLLVVYPWTRR [HBB_Y36_Q40R] | 0.465 | 0.506 | 0.448 | 0.577 | 0.823 | 0.505 | 0.68 | 0.597 | 1.14 | 0.683 | 0.567 | 0.64 | 0.469 | 0.626 | 0.407 | 0.523
RLQEGYDHSYY [ESD_Y258] | 1.4 | 0.939 | 1.05 | 1.11 | 0.928 | 0.717 | 1.06 | 0.53 | 0.611 | 1.21 | 0.715 | 0.597 | 1.05 | 1.01 | 0.573 | 0.645
RLRKFHLGKFL [KLB_Y906_Y906H_YF] | 0.303 | 0.229 | 0.406 | 0.948 | 0.651 | 1.17 | 0.792 | 1.16 | 0.63 | 1.06 | 0.417 | 0.969 | 0.698 | 1.13 | 0.415 | 0.574
RLSELYLRRNR [CFAP410_Y68] | 0.344 | 0.736 | 0.585 | 1.1 | 0.875 | 0.94 | 0.931 | 0.807 | 0.827 | 1.3 | 0.703 | 1.04 | 0.934 | 1.14 | 0.57 | 0.878
RLSVDYGKKSK [TUBA3E_Y161_S162G] | 0.83 | 1.04 | 0.843 | 0.553 | 0.642 | 0.471 | 0.396 | 0.671 | 0.511 | 0.613 | 0.534 | 0.389 | 0.922 | 0.879 | 0.377 | 0.702
RNAAEYPLSSG [ABL1_Y139_L140P] | 0.497 | 0.865 | 0.354 | 0.647 | 0.485 | 0.337 | 0.522 | 0.345 | 0.596 | 0.426 | 0.445 | 0.453 | 0.41 | 0.898 | 0.402 | 0.401
RNVYYYSYLLK [PTEN_Y178_Y174N] | 1.61 | 1.5 | 2.1 | 9.24 | 8.38 | 8.15 | 7.3 | 5.19 | 5.15 | 3.58 | 9.89 | 11.5 | 8.72 | 2.56 | 1.59 | 3.94
RPPFTYATLIR [FOXP3_Y342] | 1.25 | 1.37 | 6.22 | 0.686 | 0.813 | 1.64 | 3.29 | 0.737 | 2.58 | 1.14 | 0.913 | 1.01 | 1.29 | 1.01 | 0.55 | 2.14
RQEEEYKRLSE [SFSWAP_Y133] | 0.469 | 1.02 | 0.539 | 1.43 | 1.22 | 0.574 | 1.2 | 1.15 | 0.888 | 2.53 | 0.693 | 0.804 | 2.31 | 2.21 | 0.892 | 1.02
RQRTAYFSLDT [CDH1_Y68] | 1.74 | 0.928 | 11.3 | 0.752 | 0.504 | 0.426 | 0.533 | 0.293 | 0.357 | 0.669 | 0.586 | 0.535 | 0.691 | 0.767 | 0.414 | 0.38
RRAKGYPIFLF [ITGB2_Y125_D128Y_YF] | 0.582 | 0.62 | 0.679 | 0.854 | 0.63 | 0.351 | 0.857 | 0.739 | 0.548 | 0.632 | 0.561 | 0.524 | 1.12 | 0.741 | 0.581 | 0.624
RRGTRYMSSRP [RPL21_Y13_F15S] | 0.489 | 0.964 | 0.533 | 0.527 | 0.633 | 0.481 | 0.947 | 0.499 | 0.621 | 0.439 | 0.551 | 0.57 | 0.699 | 0.473 | 0.578 | 0.772
RRIHSYRGFLW [VHL_Y112_H115Y_YF] | 0.581 | 0.801 | 0.666 | 0.426 | 0.378 | 0.343 | 0.552 | 1.73 | 0.377 | 0.622 | 0.389 | 0.577 | 0.577 | 0.575 | 0.458 | 0.577

Sequence | SH2 binding enrichment (c-Src SH2) | SH2 binding enrichment (Grb2 SH2) | SH2 binding enrichment (SHP2-C SH2) | phosphorylation enrichment (c-Abl (mouse)) | phosphorylation enrichment (FGFR3) | phosphorylation enrichment (EPHB1) | phosphorylation enrichment (c-Src) | phosphorylation enrichment (EPHB2) | phosphorylation enrichment (Hck) | phosphorylation enrichment (AncSZ) | phosphorylation enrichment (FGFR1) | phosphorylation enrichment (MERTK) | phosphorylation enrichment (Jak2) | phosphorylation enrichment (Fes) | phosphorylation enrichment (Fer (mouse)) | phosphorylation enrichment (Fyn)
RRKRAYVEIEY [MAK16_Y282_Q277R] | 0.37 | 1.32 | 0.938 | 1.04 | 1.18 | 1.02 | 0.999 | 1.06 | 1.13 | 1.37 | 0.731 | 1.22 | 1.54 | 1.21 | 0.996 | 0.667
RRNSPYSQTMK [TET2_Y819] | 0.545 | 0.76 | 0.43 | 1.81 | 0.953 | 1.07 | 1.02 | 0.853 | 0.913 | 1.02 | 2.12 | 0.813 | 1.84 | 1.14 | 0.63 | 0.731
RRNTPYSQTMK [TET2_Y819_S817T] | 0.611 | 1.23 | 1.12 | 0.422 | 0.431 | 0.252 | 0.44 | 0.365 | 0.367 | 0.55 | 0.273 | 0.503 | 0.708 | 0.626 | 0.512 | 0.428
RSAGKDDVYLI [MECP2_Y120_Y120D] | 0.581 | 0.854 | 0.478 | 0.486 | 0.594 | 0.551 | 1.25 | 0.603 | 0.616 | 0.755 | 0.513 | 0.399 | 0.658 | 0.862 | 0.521 | 1.14
RSGIFYKPESL [L2HGDH_Y103_H98R_YF] | 0.572 | 0.913 | 0.894 | 0.706 | 0.702 | 0.547 | 0.751 | 0.567 | 0.716 | 0.994 | 0.572 | 0.499 | 0.647 | 0.866 | 0.458 | 0.512
RTIPDYTSFNT [EPHB2_Y912] | 0.813 | 1.12 | 0.926 | 1.02 | 0.991 | 0.866 | 0.923 | 0.632 | 0.561 | 0.893 | 1.2 | 0.538 | 0.978 | 0.66 | 0.417 | 0.63
RVDRDYVLKST [HTATIP2_Y111_A116T] | 0.436 | 1.01 | 0.843 | 0.369 | 0.529 | 0.492 | 0.388 | 0.659 | 0.578 | 0.961 | 0.526 | 0.487 | 0.436 | 0.823 | 0.511 | 0.65
RVFIKYLPEWT [PSEN1_Y240_L235R] | 0.906 | 1.33 | 1.19 | 1.13 | 1.32 | 1.15 | 0.855 | 1.34 | 0.944 | 2.32 | 0.966 | 0.678 | 1.71 | 2.8 | 1.02 | 0.735
RVFRDYVLKSA [HTATIP2_Y111_D108Y_YF] | 0.749 | 0.668 | 1.27 | 0.999 | 0.605 | 0.648 | 0.45 | 0.533 | 0.591 | 0.889 | 0.79 | 0.548 | 1.05 | 1.15 | 0.527 | 0.572
RYMELYDLNRD [BBS2_Y648] | 5.58 | 0.989 | 0.8 | 0.993 | 1.24 | 1.52 | 4.49 | 1.05 | 1.89 | 1.41 | 1.04 | 1.32 | 1.4 | 1.41 | 1.14 | 1.67
SAEEDYIADAK [KCNT1_Y876_M877I] | 0.683 | 0.983 | 0.709 | 0.931 | 0.797 | 0.602 | 0.608 | 0.703 | 0.554 | 1.22 | 0.617 | 0.456 | 1.2 | 1.48 | 0.608 | 0.515
SAEKAYHEQFS [TUBA1A_Y282_L286F] | 0.512 | 0.983 | 0.565 | 0.454 | 0.459 | 0.401 | 0.441 | 0.393 | 0.458 | 0.664 | 0.557 | 0.424 | 0.663 | 0.701 | 0.394 | 0.519
SARFHYLMAEK [LDHB_Y173_R172H] | 0.455 | 0.957 | 0.601 | 0.372 | 0.751 | 0.463 | 0.403 | 0.403 | 0.455 | 0.666 | 0.445 | 0.499 | 0.455 | 0.661 | 0.473 | 0.564
SARSAYQEAID [SFN_Y151_M155I] | 1.06 | 0.896 | 0.705 | 0.83 | 0.685 | 0.461 | 0.516 | 0.405 | 0.523 | 1.02 | 0.573 | 0.471 | 0.875 | 0.994 | 0.395 | 0.434
SCRENYSDSEE [LEMD3_Y258] | 0.78 | 1.05 | 0.832 | 0.792 | 0.694 | 0.607 | 0.475 | 0.619 | 0.502 | 1.07 | 0.547 | 0.539 | 1 | 1.14 | 0.434 | 0.52
SCRENYSYSEE [LEMD3_Y258_D260Y] | 1.66 | 1.04 | 1.08 | 0.652 | 0.76 | 0.66 | 0.47 | 0.604 | 0.548 | 1.18 | 0.561 | 0.428 | 0.892 | 1.22 | 0.48 | 0.512
